The numbers were not newly measured in article PMC5996525, which cites them from elsewhere.

The target of the data set is CTLA-4 (Homo sapiens) (UniProt P16410). Put plainly: SPR. (In general: Surface plasmon resonance follows binding to a sensor surface in real time, without labels.)
Sequence of UniProt P16410 (P16410 36-161): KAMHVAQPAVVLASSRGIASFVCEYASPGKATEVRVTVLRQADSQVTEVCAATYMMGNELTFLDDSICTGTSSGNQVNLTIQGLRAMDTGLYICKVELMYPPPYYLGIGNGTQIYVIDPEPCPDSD

One may read the Kd as the equilibrium constant for the complex coming apart. Take tremelimumab: the Kd is 5.89 nM.
